Measurements as given in PMC7347597, “INTS10–INTS13–INTS14 form a functional module of Integrator that binds nucleic acids and the cleavage module” (Nature Communications, 2020).

How the values were obtained:
[1] = biological target: T1, INTS13-INTS14 heterodimer (Homo sapiens, UniProt Q9NVM9;Q96SY0 1-706;1-518); assay: EMSA; FP: 10 nM RNA, 10 mM HEPES pH 7.5, 5% glycerol, 2 mM MgCl2, 50 mM NaCl or none added, temperature not stated; EMSA: 50 mM HEPES pH 7.5, 200 mM NaCl, 2 mM MgCl2, on ice, 2 uM RNA or 1 uM DNA; conditions: protein: recombinant; tags: INTS13 N-terminal 2xStrep, HRV 3C cleavable (removed if needed); copies: 1;1; hairpin
[2] = biological target: T2, INTS10-INTS13-INTS14 heterotrimer (Homo sapiens, UniProt Q9NVR2;Q9NVM9;Q96SY0 1-710;1-706;1-518); assay: as above; conditions: protein: recombinant; tags: INTS13 N-terminal 2xStrep, HRV 3C cleavable (removed if needed); copies: 1;1;1; hairpin
[3] = biological target: T1, INTS13-INTS14 heterodimer; assay: fluorescence polarization; FP: 10 nM RNA, 10 mM HEPES pH 7.5, 5% glycerol, 2 mM MgCl2, 50 mM NaCl or none added, temperature not stated; EMSA: 50 mM HEPES pH 7.5, 200 mM NaCl, 2 mM MgCl2, on ice, 2 uM RNA or 1 uM DNA; conditions: protein: recombinant; tags: INTS13 N-terminal 2xStrep, HRV 3C cleavable (removed if needed); copies: 1;1; label: 5'-6-FAM; single strand
[4] = biological target: T2, INTS10-INTS13-INTS14 heterotrimer; assay: as above; conditions: protein: recombinant; tags: INTS13 N-terminal 2xStrep, HRV 3C cleavable (removed if needed); copies: 1;1;1; label: 5'-6-FAM; single strand
[5] = biological target: T3, INT cleavage module (His10-INTS4–INTS9–(2S)-INTS11) (human, UniProt Q96HW7 1-963; Q9NV88 1-658; Q5TA45 1-600); assay: pull-down; GST-INTS13 C-terminal constructs from E. coli lysates with insect cell extracts expressing cleavage module subunits, on glutathione sepharose; 50 mM HEPES pH 7.5, 200 mM NaCl, 2 mM DTT; Coomassie gel and Western blots; conditions: partners not purified
T3 construct: INTS4, human; INTS9, human; INTS11, human; The tags are named in the methods of the copurification assays; also called INTS4–INTS9–INTS11; INTS4–9–11; source: insect cells (HighFive, baculovirus), coexpressed; in cell extract and purified (StrepTrap, heparin, Superose 6); not shown: His10, N-terminal, kept; tandem Strep tag (2S), N-terminal, kept; copies: + +
T3 sequence (Q96HW7 whole entry, chain 1 of 3): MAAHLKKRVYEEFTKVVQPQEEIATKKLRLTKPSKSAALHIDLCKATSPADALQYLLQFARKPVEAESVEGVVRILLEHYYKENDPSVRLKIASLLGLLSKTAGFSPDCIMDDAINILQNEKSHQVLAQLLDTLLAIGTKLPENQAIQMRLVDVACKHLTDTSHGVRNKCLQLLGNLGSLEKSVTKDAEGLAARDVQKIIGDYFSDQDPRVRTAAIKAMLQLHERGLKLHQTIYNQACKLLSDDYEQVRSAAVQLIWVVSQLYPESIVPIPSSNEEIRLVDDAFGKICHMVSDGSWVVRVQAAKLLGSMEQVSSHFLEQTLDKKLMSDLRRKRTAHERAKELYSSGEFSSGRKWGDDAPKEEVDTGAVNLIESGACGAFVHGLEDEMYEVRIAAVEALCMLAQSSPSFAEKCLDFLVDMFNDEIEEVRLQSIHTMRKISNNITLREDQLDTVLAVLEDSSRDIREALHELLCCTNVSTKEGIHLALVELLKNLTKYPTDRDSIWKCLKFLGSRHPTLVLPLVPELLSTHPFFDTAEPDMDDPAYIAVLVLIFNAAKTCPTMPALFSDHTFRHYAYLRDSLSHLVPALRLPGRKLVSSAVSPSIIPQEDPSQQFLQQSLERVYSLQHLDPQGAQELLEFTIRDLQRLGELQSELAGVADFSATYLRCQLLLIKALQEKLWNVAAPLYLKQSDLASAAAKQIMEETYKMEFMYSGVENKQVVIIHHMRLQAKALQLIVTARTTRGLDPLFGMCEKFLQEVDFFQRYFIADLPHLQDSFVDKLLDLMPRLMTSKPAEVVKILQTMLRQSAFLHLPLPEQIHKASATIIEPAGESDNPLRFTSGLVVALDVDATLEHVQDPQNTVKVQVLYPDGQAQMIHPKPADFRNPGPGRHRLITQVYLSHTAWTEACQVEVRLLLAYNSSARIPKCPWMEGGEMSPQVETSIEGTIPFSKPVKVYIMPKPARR
T3 sequence (Q9NV88 whole entry, chain 2 of 3): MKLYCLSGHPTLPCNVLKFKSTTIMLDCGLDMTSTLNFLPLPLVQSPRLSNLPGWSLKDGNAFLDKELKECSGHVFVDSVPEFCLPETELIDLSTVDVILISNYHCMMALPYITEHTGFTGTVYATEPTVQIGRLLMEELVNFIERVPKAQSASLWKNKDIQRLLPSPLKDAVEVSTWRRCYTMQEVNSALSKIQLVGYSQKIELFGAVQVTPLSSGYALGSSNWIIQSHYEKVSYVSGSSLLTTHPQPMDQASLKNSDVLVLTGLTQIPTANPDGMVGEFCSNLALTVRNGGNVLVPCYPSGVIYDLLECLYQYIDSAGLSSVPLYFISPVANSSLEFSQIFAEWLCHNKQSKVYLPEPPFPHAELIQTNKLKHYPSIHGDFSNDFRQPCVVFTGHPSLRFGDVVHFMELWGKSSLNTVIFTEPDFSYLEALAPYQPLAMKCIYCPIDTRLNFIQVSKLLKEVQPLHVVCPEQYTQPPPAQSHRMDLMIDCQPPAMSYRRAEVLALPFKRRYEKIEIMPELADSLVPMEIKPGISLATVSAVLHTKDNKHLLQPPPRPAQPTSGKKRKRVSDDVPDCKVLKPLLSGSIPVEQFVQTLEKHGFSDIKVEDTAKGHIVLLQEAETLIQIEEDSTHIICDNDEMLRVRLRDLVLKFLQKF
T3 sequence (Q5TA45 whole entry, chain 3 of 3): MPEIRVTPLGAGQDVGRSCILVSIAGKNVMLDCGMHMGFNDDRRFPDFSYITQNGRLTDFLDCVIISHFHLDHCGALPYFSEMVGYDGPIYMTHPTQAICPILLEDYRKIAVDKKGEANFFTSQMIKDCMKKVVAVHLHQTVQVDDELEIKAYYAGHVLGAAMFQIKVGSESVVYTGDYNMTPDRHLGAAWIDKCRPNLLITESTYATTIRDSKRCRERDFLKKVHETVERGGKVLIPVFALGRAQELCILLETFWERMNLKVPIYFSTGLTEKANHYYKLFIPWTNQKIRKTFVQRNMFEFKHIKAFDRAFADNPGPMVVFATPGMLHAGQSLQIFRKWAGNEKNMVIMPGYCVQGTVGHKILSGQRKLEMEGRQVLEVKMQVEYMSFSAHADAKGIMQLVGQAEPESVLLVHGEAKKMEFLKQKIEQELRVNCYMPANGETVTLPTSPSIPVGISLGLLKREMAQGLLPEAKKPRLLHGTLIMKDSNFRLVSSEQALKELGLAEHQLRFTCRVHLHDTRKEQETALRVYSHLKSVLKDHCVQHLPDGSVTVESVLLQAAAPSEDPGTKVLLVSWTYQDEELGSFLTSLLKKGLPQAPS

T2 sequence (Q9NVR2 whole entry, chain 1 of 3): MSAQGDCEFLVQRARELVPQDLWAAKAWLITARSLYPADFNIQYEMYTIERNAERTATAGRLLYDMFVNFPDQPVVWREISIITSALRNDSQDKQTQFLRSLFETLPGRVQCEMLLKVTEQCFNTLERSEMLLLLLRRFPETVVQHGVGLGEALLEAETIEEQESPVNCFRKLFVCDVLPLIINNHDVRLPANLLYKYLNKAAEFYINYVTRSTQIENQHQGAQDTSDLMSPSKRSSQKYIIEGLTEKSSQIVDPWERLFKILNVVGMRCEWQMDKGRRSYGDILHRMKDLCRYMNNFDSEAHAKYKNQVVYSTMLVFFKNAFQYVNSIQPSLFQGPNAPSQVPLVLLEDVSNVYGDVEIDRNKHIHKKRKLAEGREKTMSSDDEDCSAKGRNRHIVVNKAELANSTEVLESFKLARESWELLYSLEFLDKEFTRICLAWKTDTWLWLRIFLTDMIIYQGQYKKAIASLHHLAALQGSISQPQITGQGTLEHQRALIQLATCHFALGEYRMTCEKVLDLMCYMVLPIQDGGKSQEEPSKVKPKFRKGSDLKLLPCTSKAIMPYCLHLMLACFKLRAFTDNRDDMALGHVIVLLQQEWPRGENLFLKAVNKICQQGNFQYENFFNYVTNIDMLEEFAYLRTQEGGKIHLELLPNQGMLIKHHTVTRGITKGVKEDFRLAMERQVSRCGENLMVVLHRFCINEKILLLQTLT
T2 sequence (Q9NVM9 whole entry, chain 2 of 3): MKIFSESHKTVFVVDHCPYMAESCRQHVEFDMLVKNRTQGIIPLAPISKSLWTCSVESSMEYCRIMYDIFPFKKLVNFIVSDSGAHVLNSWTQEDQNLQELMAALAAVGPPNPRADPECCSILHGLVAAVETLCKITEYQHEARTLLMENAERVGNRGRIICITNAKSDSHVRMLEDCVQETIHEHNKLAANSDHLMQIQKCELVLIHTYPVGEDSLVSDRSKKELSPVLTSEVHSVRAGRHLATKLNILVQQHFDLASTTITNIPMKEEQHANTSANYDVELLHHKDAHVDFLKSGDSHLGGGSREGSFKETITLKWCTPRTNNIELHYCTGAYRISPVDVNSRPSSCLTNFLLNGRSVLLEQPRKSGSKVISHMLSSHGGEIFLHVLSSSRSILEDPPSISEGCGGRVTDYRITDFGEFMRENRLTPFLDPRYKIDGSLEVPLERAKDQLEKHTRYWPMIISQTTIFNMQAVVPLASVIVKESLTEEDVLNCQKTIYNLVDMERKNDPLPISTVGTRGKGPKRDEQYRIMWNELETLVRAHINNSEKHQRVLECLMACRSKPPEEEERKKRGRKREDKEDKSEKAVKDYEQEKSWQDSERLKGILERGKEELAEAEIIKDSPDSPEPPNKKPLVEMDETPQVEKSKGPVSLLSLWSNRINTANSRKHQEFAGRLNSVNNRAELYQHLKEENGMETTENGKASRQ
T2 sequence (Q96SY0 whole entry, chain 3 of 3): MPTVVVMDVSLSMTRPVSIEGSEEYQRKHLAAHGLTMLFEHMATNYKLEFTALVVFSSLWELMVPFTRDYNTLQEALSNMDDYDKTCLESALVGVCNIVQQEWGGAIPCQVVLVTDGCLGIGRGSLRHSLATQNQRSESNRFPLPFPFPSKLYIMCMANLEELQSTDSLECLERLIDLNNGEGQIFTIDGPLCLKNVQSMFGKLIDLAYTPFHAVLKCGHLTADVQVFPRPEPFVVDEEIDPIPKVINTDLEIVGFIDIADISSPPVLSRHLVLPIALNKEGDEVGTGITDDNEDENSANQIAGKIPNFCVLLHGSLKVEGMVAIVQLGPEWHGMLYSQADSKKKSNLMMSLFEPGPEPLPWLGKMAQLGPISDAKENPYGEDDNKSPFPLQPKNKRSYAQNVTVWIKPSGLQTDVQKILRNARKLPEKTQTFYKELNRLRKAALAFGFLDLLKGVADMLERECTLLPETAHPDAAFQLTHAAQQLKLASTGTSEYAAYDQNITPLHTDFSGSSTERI
T1 sequence (Q9NVM9 whole entry, chain 1 of 2): as the sequence (Q9NVM9 whole entry, chain 2 of 3) above
T1 sequence (Q96SY0 whole entry, chain 2 of 2): as the sequence (Q96SY0 whole entry, chain 3 of 3) above

B1: U1 SL4 (structured_RNA)
RNA: GGGUGGGGGACUGCGUUCGCGCUUUCCCCUGGCCGG
binding result [1]: binds | apparent K (half saturation) [2]: ~1000 nM

B2: U12 RNA (ssRNA)
RNA: UUUUUUUUUUUU
Kd [3]: 0.57 ± 0.05 µM | Kd [4]: 0.42 ± 0.02 µM

B3: GST-INTS13 cleavage module-binding motif (CMBM, residues 649–694) (domain or fragment, human, UniProt Q9NVM9 649-694, looked up)
chain: GPVSLLSLWSNRINTANSRKHQEFAGRLNSVNNRAELYQHLKEENG
notes: INTS13, human, conserved C-terminal helices, residues 649–694; also called GST-CMBM; INTS13 CMBM; source: E. coli BL21 Star (DE3), in lysate; not shown: GST, N-terminal, kept
binding result [5]: binds
